Substrate in series [1]: CCOc1ccc2nc3ccc(=O)cc-3oc2c1
Description: Kinetic analysis, 7-ethoxyresorufin O-deethylase activity in Hepc/1A1.4. The class given is cell-based, human. Particulars: other: Hepc/1A1.4, Lineweaver-Burk plot, 37.0 °C. The procedure: (§1) After 1800 μl of methanol (Wako Junyaku K. K) was added to 300 μl of the reaction solution and insoluble material was removed by centrifugation, fluorescent intensity was measured at an excited wavelength of 550 nm and a fluorescence wavelength of 586 nm using a spectrofluorometer to quantify the resorufin formed. The product purchased from Molecular Probes was used as the standard substance for resorufin (Molecular Probes).

Substrate in series [2]: CC(=O)O[C@H]1C(=O)[C@@]2(C)[C@H]([C@H](OC(=O)c3ccccc3)[C@]3(O)C[C@H](OC(=O)[C@H](O)[C@@H](NC(=O)c4ccccc4)c4ccccc4)C(C)=C1C3(C)C)[C@]1(OC(C)=O)CO[C@@H]1C[C@@H]2O
Substrate in series [3]: O=[N+]([O-])c1ccc(O)cc1
Description: Kinetic analysis, p-nitrophenol hydroxylase activity in Hepc/2E1.3-8. In kind it is cell-based, human. Particulars: other: Hepc/2E1.3-8, Lineweaver-Burk plot, 37.0 °C. The text has this:
4-Nitrocatechol purchased from Wako Junyaku K. K. was used as the standard substance.

Substrate in series [4]: CCOc1ccc2nc3ccc(=O)cc-3oc2c1
As to the kind of experiment: Kinetic analysis, 7-ethoxyresorufin O-deethylase activity in Hepc/1A2.9. The class given is cell-based, human. Particulars: other: Hepc/1A2.9, Lineweaver-Burk plot, 37.0 °C. The procedure:
as §1

The source of these data is patent publication US6756229B1, “Human cell line showing stable expression of cytochromes P450” (Takeda Chemical Industries, Ltd., priority 1999, dated 2004).

B1: CYP1A1 (Homo sapiens) (protein)
chain: MLFPISMSATEFLLASVIFCLVFWVIRASRPQVPKGLKNPPGPWGWPLIGHMLTLGKNPHLALSRMSQQYGDVLQIRIGSTPVVVLSGLDTIRQALVRQGDDFKGRPDLYTFTLISNGQSMSFSPDSGPVWAARRRLAQNGLKSFSIASDPASSTSCYLEEHVSKEAEVLISTLQELMAGPGHFNPYRYVVVSVTNVICAICFGRRYDHNHQELLSLVNLNNNFGEVVGSGNPADFIPILRYLPNPSLNAFKDLNEKFYSFMQKMVKEHYKTFEKGHIRDITDSLIEHCQEKQLDENANVQLSDEKIINIVLDLFGAGFDTVTTAISWSLMYLVMNPRVQRKIQEELDTVIGRSRRPRLSDRSHLPYMEAFILETFRHSSFVPFTIPHSTTRDTSLKGFYIPKGRCVFVNQWQINHDQKLWVNPSEFLPERFLTPDGAIDKVLSEKVIIFGMGKRKCIGETIARWEVFLFLAILLQRVEFSVPLGVKVDMTPIYGLTMKHACCEHFQMQLRS
notes: expressed in transfected cells
By Km is commonly meant the concentration of substrate that gives half-maximal velocity. One may read the Vmax as the rate approached at saturating substrate. As to B1, in series [1], the Km came out at 0.25 µM and the Vmax came to 5.6e-05 µmol/min/mg.

B2: CYP2C8 (Homo sapiens) (protein)
chain: MEPFVVLVLCLSFMLLFSLWRQSCRRRKLPPGPTPLPIIGNMLQIDVKDICKSFTNFSKVYGPVFTVYFGMNPIVVFHGYEAVKEALIDNGEEFSGRGNSPISQRITKGLGIISSNGKRWKEIRRFSLTTLRNFGMGKRSIEDRVQEEAHCLVEELRKTKASPCDPTFILGCAPCNVICSVVFQKRFDYKDQNFLTLMKRFNENFRILNSPWIQVCNNFPLLIDCFPGTHNKVLKNVALTRSYIREKVKEHQASLDVNNPRDFIDCFLIKMEQEKDNQKSEFNIENLVGTVADLFVAGTETTSTTLRYGLLLLLKHPEVTAKVQEEIDHVIGRHRSPCMQDRSHMPYTDAVVHEIQRYSDLVPTGVPHAVTTDTKFRNYLIPKGTTIMALLTSVLHDDKEFPNPNIFDPGHFLDKNGNFKKSDYFMPFSAGKRICAGEGLARMELFLFLTTILQNFNLKSVDDLKNLNTTAVTKGIVSLPPSYQICFIPV
With B2, in series [2], the Michaelis-Menten constant (Km) was found to be 7.4 µM and the maximum rate (Vmax) is 9e-09 µmol/min/mg.

B3: CYP2E1 (Homo sapiens) (protein)
chain: MSALGVTVALLVWAAFLLLVSMWRQVHSSWNLPPGPFPLPIIGNLFQLELKNIPKSFTRLAQRFGPVFTLYVGSQRMVVMHGYKAVKEALLDYKDEFSGRGDLPAFHAHRDRGIIFNNGPTWKDIRRFSLTTLRNYGMGKQGNESRIQREAHFLLEALRKTQGQPFDPTFLIGCAPCNVIADILFRKHFDYNDEKFLRLMYLFNENFHLLSTPWLQLYNNFPSFLHYLPGSHRKVIKNVAEVKEYVSERVKEHHQSLDPNCPRDLTDCLLVEMEKEKHSAERLYTMDGITVTVADLFFAGTETTSTTLRYGLLILMKYPEIEEKLHEEIDRVIGPSRIPAIKDRQEMPYMDAVVHEIQRFITLVPSNLPHEATRDTIFRGYLIPKGTVVVPTLDSVLYDNQEFPDPEKFKPEHFLNENGKFKYSDYFKPFSTGKRVCAGEGLARMELFLLLCAILQHFNLKPLVDPKDIDLSPIHIGFGCIPPRYKLCVIPRS
notes: as for B1
On to B3, for which, in series [3], the Km is 88 µM and the maximal velocity (Vmax) is 0.00012 µmol/min/mg.

B4: CYP1A2 (Homo sapiens) (protein)
chain: MALSQSVPFSATELLLASAIFCLVFWVLKGLRPRVPKGLKSPPEPWGWPLLGHVLTLGKNPHLALSRMSQRYGDVLQIRIGSTPVLVLSRLDTIRQALVRQGDDFKGRPDLYTSTLITDGQSLTFSTDSGPVWAARRRLAQNALNTFSIASDPASSSSCYLEEHVSKEAKALISRLQELMAGPGHFDPYNQVVVSVANVIGAMCFGQHFPESSDEMLSLVKNTHEFVETASSGNPLDFFPILRYLPNPALQRFKAFNQRFLWFLQKTVQEHYQDFDKNSVRDITGALFKHSKKGPRASGNLIPQEKIVNLVNDIFGAGFDTVTTAISWSLMYLVTKPEIQRKIQKELDTVIGRERRPRLSDRPQLPYLEAFILETFRHSSFLPFTIPHSTTRDTTLNGFYIPKKCCVFVNQWQVNHDPELWEDPSEFRPERFLTADGTAINKPLSEKMMLFGMGKRRCIGEVLAKWEIFLFLAILLQQLEFSVPPGVKVDLTPIYGLTMKHARCEHVQARLRFSIN
notes: as for B1
As to B4, in series [4], the Michaelis-Menten constant (Km) was 0.72 µM and the Vmax is 1.6e-06 µmol/min/mg.
